Target: the molecule itself
Assay: gel filtration chromatography, self-association
Method: APX, fluorescent protein, or miniSOG preparations were diluted to the desired concentrations using chilled (4° C.) PBS and then allowed to incubate at room temperature for 30 min to overnight. Samples ([…]) were run on a Waters HPLC system over a Superdex 75 10/300 column (GE Healthcare) that had been pre-equilibrated in PBS, pH 7.4. Samples were run isocratically in PBS at a flow rate of 0.5 mL/min. Elution of APX was monitored at 280 nm and 405 nm (heme absorbance). Empower software (Waters) was used for analysis of elution profiles. Apparent MWs were determined against low molecular weight standards (GE). […] This estimation was applied for all proteins in FIG. 4d except wt APX, which was predominantly dimeric at 0.25 μM. The apparent MW of the monomer for wt APX was assumed to be equal to the apparent MW of mAPX at 0.25 μM.

B1: wild-type pea cytosolic ascorbate peroxidase (APX), N-terminally His6-tagged (enzyme)
chain: RGKSYPTVSPDYQKAIEKAKRKLRGFIAEKKCAPLILRLAWHSAGTFDSKTKTGGPFGTIKHQAELAHGANNGLDIAVRLLEPIKEQFPIVSYADFYQLAGVVAVEITGGPEVPFHPGREDKPEPPPEGRLPDATKGSDHLRDVFGKAMGLSDQDIVALSGGHTIGAAHKERSGFEGPWTSNPLIFDNSYFTELLTGEKDGLLQLPSDKALLTDSVFRPLVEKYAADEDVFFADYAEAHLKLSELGFAEA
modifications: heme cofactor (non-covalent)
notes: the entries describe its self-association (homodimer) in gel filtration; also called wt APX; wtAPX; not shown: N-terminal His6-tag
- binding result: binds
